Experimental data taken from patent US20190062448A1, “ANTI-CD39 ANTIBODIES, COMPOSITIONS COMPRISING ANTI-CD39 ANTIBODIES AND METHODS OF USING ANTI-CD39 ANTIBODIES” (Tizona Therapeutics, priority 2017, published 2019).
Entries after “also recorded” stand apart in the source; their conditions may differ.

What was measured:
[1] = target: T1, human CD39 endogenously expressed on MEL-28 cells (Homo sapiens, UniProt P49961); test: EnzChek kinetic Pi detection assay on MEL-28 cells (initial velocity, Michaelis-Menten); type: cell-based; settings: ARL 200 micromolar, isotype control 7.7
T1 construct: MEL-28 cells (35,000 MEL-28 cells/well) endogenously expressing human CD39; endogenous in cells; host or cells: MEL-28
T1 sequence (P49961 1-510): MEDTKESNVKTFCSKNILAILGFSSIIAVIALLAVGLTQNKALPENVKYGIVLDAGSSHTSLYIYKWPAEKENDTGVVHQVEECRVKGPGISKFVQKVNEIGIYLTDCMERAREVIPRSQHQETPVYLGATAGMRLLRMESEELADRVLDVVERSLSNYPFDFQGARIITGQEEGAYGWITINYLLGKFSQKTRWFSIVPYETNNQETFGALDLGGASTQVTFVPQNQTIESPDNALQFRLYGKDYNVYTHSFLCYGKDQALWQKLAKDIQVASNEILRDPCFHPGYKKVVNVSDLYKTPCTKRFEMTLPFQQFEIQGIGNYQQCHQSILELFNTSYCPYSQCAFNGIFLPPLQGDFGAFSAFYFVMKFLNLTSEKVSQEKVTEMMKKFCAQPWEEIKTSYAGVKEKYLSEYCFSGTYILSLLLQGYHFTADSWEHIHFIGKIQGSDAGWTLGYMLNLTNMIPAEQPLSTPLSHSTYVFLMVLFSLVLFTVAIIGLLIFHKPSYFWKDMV
Procedure: Anti-CD39 antibodies (100 nanomolar), isotype control antibody (100 nanomolar), or ARL (200 micromolar) were incubated with MEL-28 cells endogenously expressing human CD39 for 2 hours. ATP was then added and the rate of ATP hydrolysis to Pi by CD39 was monitored using the EnzChek kinetic Pi detection assay. The initial enzyme velocity, ν0, was determined from the linear region of Pi vs. time curve over the first 15 minutes post-ATP addition. Each value is the mean of 3 replicates.
Anti-CD39 antibodies or isotype control antibody (100 nanomolar final concentration) were incubated with MEL-28 cells (35,000 MEL-28 cells/well) endogenously expressing human CD39 at 37° C. for 20 minutes in the presence of EnzChek reagents (PNP & MESG). Immediately following the addition of ATP (final concentrations ranging from 0-450 micromolar), the rate of ATP hydrolysis to free phosphate (Pi) by CD39 was monitored over time at Abs360 nm using SpectraMax i3x plate reader. The initial enzyme velocity, ν0, was determined from the linear region of Pi vs. time curve for each ATP concentration. The plot of ν0 vs. [ATP] was curve fit using non-linear regression of the Michaelis-Menten kinetic model.

hCD39-ECD [2] = target: T2, hCD39-ECD (Homo sapiens, UniProt P49961); test: Epitope binning / competition for hCD39-ECD binding by Bio-Layer Interferometry
T2 sequence (P49961 38-478 limits assumed): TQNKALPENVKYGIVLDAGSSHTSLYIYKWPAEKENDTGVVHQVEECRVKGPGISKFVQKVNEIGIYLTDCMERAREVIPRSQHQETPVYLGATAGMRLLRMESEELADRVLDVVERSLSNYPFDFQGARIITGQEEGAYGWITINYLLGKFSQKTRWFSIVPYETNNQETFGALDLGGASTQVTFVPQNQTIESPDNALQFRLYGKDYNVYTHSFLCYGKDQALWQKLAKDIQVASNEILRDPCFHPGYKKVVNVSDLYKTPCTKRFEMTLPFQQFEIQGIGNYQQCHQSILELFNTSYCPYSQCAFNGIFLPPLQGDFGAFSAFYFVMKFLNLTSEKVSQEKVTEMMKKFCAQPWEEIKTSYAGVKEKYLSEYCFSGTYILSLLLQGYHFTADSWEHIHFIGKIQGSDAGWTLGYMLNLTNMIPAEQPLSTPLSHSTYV
Excerpt: A1 antibody was immobilized onto an Anti-Mouse IgG Fc Capture (AMC) biosensor (ForteBio). Association of hCD39-ECD was then monitored for 180 seconds via Bio-Layer Interferometry (BLI) using the Octet system (ForteBio), at which point the biosensor was dipped into competitor antibody and monitored for another 180 seconds.
The methods are the same as set forth above except that instead of A1, the representative antibody was immobilized using anti-human IgG Fc Capture (AHC) biosensor.
(§1) Also, an 18 hour incubation was used with the antibody or isotype control. Finally, an additional 30 second baseline dip in buffer between antigen capture and dipping into a second competitor antibody for 300 seconds was used.

hCD39-ECD [3] = target: T2, hCD39-ECD; test: rhCD39-ECD ATPase inhibition (Malachite Green free phosphate); type: biochemical; parameters: purchased R&D Systems; settings: 50 μg/ml antibody; 10 μM ATP; vs isotype or buffer controls
Procedure: 0.04-3.3 nM rhCD39-ECD (R&D Systems) was incubated with buffer, 50 μg/ml antibody or 100 μM POM-1 (Alpha Aesar) for 1 hr at 37° C. in assay buffer (25 mM Tris pH 7.5, 5 mM CaCl2) at which point ATP (Sigma) was spiked in to a final concentration of 10 μM, and the reaction further incubated for 30 min 37° C. Production of free phosphate (Pi) was subsequently measured using Malachite Green Phosphate Detection kit (R&D Systems).
as §1

[4] = target: T3, CD39 expressed on MEL-28 cells (Homo sapiens, UniProt P49961); test: Cellular CD39 ATPase inhibition (Malachite Green), Example 15; type: cell-based; settings: 10-25 μg/ml antibody; 50 μM ATP; vs isotype control
T3 construct: endogenous in cells; host or cells: MEL-28
T3 sequence (P49961 1-510): T1 sequence (P49961 1-510)
Procedure: Indicated cells were incubated in assay buffer with 10-25 μg/ml antibody, 100 μM POM-1 or 100 μM ARL for 30 min at 37° C. 5% CO2. ATP was added to a final concentration of 50 μM and the incubation continued for 15 min. Supernatant was evaluated for free phosphate (Pi) using the Malachite Green Phosphate Detection kit. Palivizumab is used as an isotype control and POM-1 and ARL are non-specific small molecule inhibitors of CD39.
as §1

## CCN(CC)c1ncnc2c1ncn2[C@@H]1O[C@H](COP(=O)(O)OP(=O)(O)C(Br)(Br)P(=O)(O)O)[C@@H](O)[C@H]1O [ARL]
[1]
  ATP hydrolysis rate (initial velocity): 1.2 micromolar Pi per minute

B1: 27571: anti-human CD39 antibody inhibiting soluble ECD and cellular CD39 (antibody, V domains shown)
VH: QVQLVQSGAEVKKPGSSVKASCKASGGTFSSYAISWVRQAPGQGLEWMGSIIPIFGTANYAQKFRGRVTITADESTSTTYMELSSLRSEDTAVYYCARESGGYRDHRLDVWGQGTMVTVSS
VL: EIVMTQSPATLSVSPGERATLSCRASQSVGSNLAWYQQKPGQAPRLLIYGASTRATGIPARFSGSGSGTEFTLTISSLQSEDFAVYYCQQYLIWPLTFGGGTKVEIK
modifications: Synthetic VH, 27571; Synthetic VL, 27571
hCD39-ECD [2]
  competition / binning with other anti-CD39 antibody bin groups for ECD binding: do not compete
hCD39-ECD [2]; A1 immobilized, ECD captured, then competitor antibody
  competition with antibody A1 for binding to hCD39 ECD: does not block binding; also recorded: do not compete
hCD39-ECD [3]
  inhibition of ATPase activity of soluble hCD39 ECD (μM Pi): able to inhibit the hydrolysis of ATP by hCD39 ECD
[4]
  inhibition of ATPase activity of CD39 expressed on MEL-28 cells: inhibit the hydrolysis of CD39 expressed on MEL-28 cells
